Assay results as given in patent publication EP0672680A1.
Square brackets hold non-standard residues; d marks the D form.

Target: bovine lung-derived ANP receptor (bovine)
Test: competition radioligand binding: displacement of 125I-rat ANP from bovine lung membrane fraction, filter assay

Sequence of bovine lung-derived ANP receptor (bovine) (P10730 42-537): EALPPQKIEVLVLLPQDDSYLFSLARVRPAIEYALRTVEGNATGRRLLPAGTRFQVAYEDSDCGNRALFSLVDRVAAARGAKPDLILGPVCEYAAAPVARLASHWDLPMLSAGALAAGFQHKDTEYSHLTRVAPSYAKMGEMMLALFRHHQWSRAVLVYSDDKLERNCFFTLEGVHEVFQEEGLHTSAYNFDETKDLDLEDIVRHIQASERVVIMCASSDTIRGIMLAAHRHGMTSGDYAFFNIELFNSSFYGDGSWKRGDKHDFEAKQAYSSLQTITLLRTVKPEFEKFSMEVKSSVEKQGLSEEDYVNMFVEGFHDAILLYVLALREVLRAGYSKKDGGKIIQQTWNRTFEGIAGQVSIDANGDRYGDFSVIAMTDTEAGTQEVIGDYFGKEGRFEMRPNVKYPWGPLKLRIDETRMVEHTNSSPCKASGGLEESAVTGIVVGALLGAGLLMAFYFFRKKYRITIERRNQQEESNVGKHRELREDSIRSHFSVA

Binder | IC50
H-FGG[dR]ID[dR]I-NH2 (SMILES CC[C@H](C)[C@H](NC(=O)[C@@H](CCCNC(=N)N)NC(=O)[C@H](CC(=O)O)NC(=O)[C@@H](NC(=O)[C@@H](CCCNC(=N)N)NC(=O)CNC(=O)CNC(=O)[C@@H](N)Cc1ccccc1)[C@@H](C)CC)C(N)=O) [compound (j) (H-Phe-Gly-Gly-D-Arg-Ile-Asp-D-Arg-Ile-NH2)] | 5400 nM
H-FGG[dR]IDRI-NH2 (SMILES CC[C@H](C)[C@H](NC(=O)[C@H](CCCNC(=N)N)NC(=O)[C@H](CC(=O)O)NC(=O)[C@@H](NC(=O)[C@@H](CCCNC(=N)N)NC(=O)CNC(=O)CNC(=O)[C@@H](N)Cc1ccccc1)[C@@H](C)CC)C(N)=O) [compound (i) (H-Phe-Gly-Gly-D-Arg-Ile-Asp-Arg-Ile-NH2)] | 210 nM
